What is called EC50 (read off the curve) is the concentration that produces a half-maximal response.

Results on one molecule are retold here after patent US20210269546A1 (MOMENTA PHARMACEUTICALS, published 2021).

The target in experiment [1] is T1, cynomolgus monkey CD38 (CHO cells stably expressing cyno CD38) (cynomolgus monkey, UniProt Q5VAN0 1-301).
T1 construct: whole, on cells
Nature of the experiment: flow cytometry, VivoTag645-labeled, CHO cells stably expressing cyno CD38, 4 °C, 1 hour, gMFI. As for the experimental part: (§1) FIG. 26. […] Extent of cell surface binding was assessed by flow cytometry. […]

Experiment [2] deals with T2, human CD38 on the cell surface (Raji and other human tumor cell lines) (human, UniProt P28907 1-300).
T2 construct: whole, on cells; also called cell surface CD38
The experiment in a line: flow cytometry, VivoTag645-labeled, human CD38 expressing Raji tumor cells, 4 °C, 1 hour, gMFI. As for the experimental part: as §1
In general terms: In flow cytometry, cells or beads pass a laser one at a time.

T1 sequence (Q5VAN0 whole entry): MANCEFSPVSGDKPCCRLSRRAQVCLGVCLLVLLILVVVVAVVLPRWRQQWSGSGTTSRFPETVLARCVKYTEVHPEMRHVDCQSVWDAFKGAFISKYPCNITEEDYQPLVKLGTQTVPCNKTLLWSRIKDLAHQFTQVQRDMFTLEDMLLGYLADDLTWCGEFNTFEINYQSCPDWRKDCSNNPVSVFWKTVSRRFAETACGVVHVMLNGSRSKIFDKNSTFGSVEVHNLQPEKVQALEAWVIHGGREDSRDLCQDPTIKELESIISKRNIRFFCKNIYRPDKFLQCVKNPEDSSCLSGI

B1: S1A-AA-Cyno (anti-Cyno CD38 mAb) (antibody, V domains shown)
VH: QLLESGGGLVQPGGSLRLSCAASGFTFDDYGMSWVRQAPGKGLEWVSDISWNGGKTHYVDSVKGQFTISRDNSKNTLYLQMNSLRAEDTAVYYCARGSLFHDSSGFYFGHWGQGTLVTVSS
VL: QSVLTQPPSASGTPGQRVTISCSGSSSNIGDNYVSWYQQLPGTAPKLLIYRDSQRPSGVPDRFSGSKSGTSASLAISGLRSEDEADYYCQSYDSSLSGSVFGGGTKLTVLG
modifications: VivoTag645 dye label in the flow cytometry assays
notes: Surrogate anti-CD38 human monoclonal IgG1 antibody; VivoTag645-labeled in flow cytometry; also called SIA-AA-Cyno; S1A-AA-Cyno CD38
On to B1, for which the binding result in experiment [1] is “binds”. In addition, in experiment [2], the “EC50 (read off the curve)” value is about 0.8 nM.
